According to US20220356213A1 (MAX PLANCK GESELLSCHAFT ZUR F RDERUNG DER WISSENSCHAFTEN E V, published 2022):

Target: T1, TMH-FLAG-(L1)-iLID
T1 chain: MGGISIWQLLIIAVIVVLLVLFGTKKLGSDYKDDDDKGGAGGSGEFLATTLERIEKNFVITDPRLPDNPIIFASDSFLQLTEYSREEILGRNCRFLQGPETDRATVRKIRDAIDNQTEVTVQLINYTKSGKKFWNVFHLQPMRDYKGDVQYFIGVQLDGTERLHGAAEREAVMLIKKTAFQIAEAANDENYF
Assay: cell-based or functional assay

B1: SspB_Nano-SctQ (other)
chain: MSLRSGAGSSPKRPKLLREYYDWLVDNSFTPYLVVDATYLGVNVPVEYVKDGQIVLNLSASATGNLQLTNDFIQFNARFKGVSRELYIPMGAALAIYARENGDGVMFEPEEIYDELNIGGAGELGGSGGSGGSLLTLPQAKLSELSLRQRLSHYRQNYLWEEGKLELTVSEPPSSLNCILQLQWKGTHFTLYCFGDDLANWLTPDLLGAPFSTLPKELQLALLERQTVFLPKLVCNDIATASLSVTQPLLSLRLSRDNAHISFWLTSAEALFALLPARPNSERIPLPILLSLRWHKVYLTLDEVDSLRLGDVLLAPEGSGPNSPVLAYVGENPWGYFQLQSNKLEFIGMSHESDELNPKPLTDLNQLPVQVSFEVGRQILDWHTLTSLEPGSLIDLTTPVDGEVRLLANGRLLGHGRLVEIQGRLGVRIERLTEVTIS
L/D ratio of export of heterologous cargo YopE1-53-NanoLuc-FLAG, LITESEC-supp2: < 0.02
L/D ratio of export of heterologous cargo, LITESEC-supp2: 0.01
export of heterologous cargo, LITESEC-supp2, dark: 205 % WT secretion
export of heterologous cargo, LITESEC-supp2, light: 2 % WT secretion
light/dark secretion ratio (L/D ratio), LITESEC-supp1, native T3SS substrates, in vitro secretion assay: 0.28
light/dark secretion ratio (L/D ratio), LITESEC-supp2 (anchor from pACYC184), native T3SS substrates: 0.26
